Source: the supplement of paper PMC10126150
± gives the standard deviation of the averaged measurements.

Test system: ATP
Test: switch fluorescence ratio, 500 uM ATP over buffer (Cy3 cluster intensity, sum of 5 cycles each) (fold (ratio)); higher = stronger signal-on switching upon ATP binding; sequences stand for … in TCGTCGGCAGCGTCAGATGTGTATAAGAGACAGTTTTTTTTTTTTTTTTTTTTTTTTT…TC
Conditions: aptamer strand: ATP DNA aptamer (quencher-CACCTGGGGGAGTATTGCGGAGGAAGG + anchor), 100 nM annealed; ATP concentration: 500 uM
Summary of the method: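 Cy3-labelled switching-strand clusters on a modified Illumina MiSeq flow-cell were annealed to 100 nM quencher-labelled ATP aptamer and imaged first in selection buffer, then after 15 min with 500 uM ATP at 22 °C. NaOH stripping and re-annealing separated each of five buffer/ATP cycles, and clusters outside 100-1000 RFU were excluded. The fluorescence ratio sums target-cycle Cy3 intensity over buffer-cycle Cy3 intensity per cluster and averages it per switch-domain sequence.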
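Further: ATP exposure 15 min at 22 °C before imaging.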

| Sequence | switch fluorescence ratio |
| --- | --- |
| ACGGTGCTTG | 0.99 ± 0.015 |
| TTTATTTCTA | 0.981 ± 0.013 |
| TGAAATAGGG | 1.0312 ± 0.00097 |
| AACTATGATG | 0.996 ± 0.03 |
| TGAGCAGCTG | 0.953 ± 0.058 |
| TTGGGCGGGG | 1.03 ± 0.043 |
| TTGTTCGCCT | 1.02 ± 0.011 |
| GTATCCAGGG | 1.13 ± 0.036 |
| GTGTCGCGGG | 0.962 ± 0.013 |
| GGGAAGAGTA | 1 ± 0.031 |
| TGAAGATGGG | 1 ± 0.019 |
| TCTTTTTCCT | 1.045 ± 0.0054 |
| AAGCTTTGTG | 0.9786 ± 0.0076 |
| TACGTTATAG | 1.11 ± 0.025 |
| GACGGCAGTG | 1 ± 0.02 |
| AGGCGGTGCG | 1.02 ± 0.03 |
| ATCGGATTTC | 1.02 ± 0.047 |
| AATTGAAACA | 0.9731 ± 0.0068 |
| ATGGGTCTAT | 1 ± 0.012 |
| AATTGGATCG | 1.016 ± 0.0018 |
| TGGGTTGGTG | 1.03 ± 0.032 |
| TATAACTATT | 0.999 ± 0.042 |
| CATAGTGATC | 1.051 ± 0.0011 |
| AGAGCCGGGG | 0.9777 ± 0.003 |
| CGTTTTTACA | 1 ± 0.015 |

| Sequence | switch fluorescence ratio |
| --- | --- |
| TTCAGGATTT | 0.994 ± 0.038 |
| TGGGATTGGG | 0.974 ± 0.013 |
| GATTAGGTTG | 0.968 ± 0.072 |
| GCATATGTCG | 1.097 ± 0.0042 |
| AAGAGACCTT | 1.28 ± 0.026 |
| GGAGGAAGG | 1.02 ± 0.019 |
| ATTGTAGAGT | 0.985 ± 0.026 |
| AAAGTTTATG | 1.007 ± 0.0053 |
| TTTGAAGCAA | 4.2 ± 3.2 |
| ATCAGATGAA | 0.999 ± 0.023 |
| AATACGGGAG | 0.995 ± 0.017 |
| AAGAAGGCGG | 0.9845 ± 0.0069 |
| CTGACATGAG | 1 ± 0.032 |
| AATGTGCCTT | 1.056 ± 0.0057 |
| GTAATAGTTT | 1 ± 0.036 |
| TTCGTGGTTG | 0.967 ± 0.034 |
| AGTTTCGGGC | 0.974 ± 0.033 |
| GCGCTCGTAC | 2.27 ± 0.15 |
| GTTAGTACGG | 0.9819 ± 0.0036 |
| TTTGGTGTTT | 1.01 ± 0.035 |
| CAGCGGACCG | 1.02 ± 0.028 |
| TTAAGTTGAG | 0.983 ± 0.021 |
| TTATTTGGGA | 0.991 ± 0.043 |
| ATGTCAGGGG | 1.14 ± 0.021 |
| ACGGCGCTGG | 1.02 ± 0.017 |

| Sequence | switch fluorescence ratio |
| --- | --- |
| GGCACACAGT | 1 ± 0.015 |
| AATGGAGTGG | 0.997 ± 0.028 |
| TTAAAGGCGT | 0.982 ± 0.021 |
| GGCTGAGGGA | 1.04 ± 0.037 |
| GCATTCGGCT | 1.04 ± 0.069 |
| GAGATTGGTG | 1 ± 0.031 |
| CTGACTCCAA | 2.94 ± 1.6 |
| GGGGGGAATC | 1.01 ± 0.052 |
| CGTACCAACC | 1.2 ± 0.029 |
| TCTATGAGGC | 0.988 ± 0.024 |
| GCTCTATACG | 1.049 ± 0.003 |
| ATGGTCAGGC | 0.973 ± 0.019 |
| GCTCATAGGA | 0.972 ± 0.016 |
| TAATTTAGTA | 0.9929 ± 0.0073 |
| AAATCGTATG | 0.974 ± 0.034 |
| TTACTATGTT | 0.999 ± 0.018 |
| ATATCCAGGA | 1.02 ± 0.018 |
| GCGTAAAGAT | 0.992 ± 0.034 |
| GATGCTTTTT | 1.02 ± 0.018 |
| GTAATTTGTT | 1.01 ± 0.014 |
| GGGATGCGTG | 0.991 ± 0.043 |
| TTGCGGTCGT | 1.002 ± 0.0023 |
| GGAGGGGCGT | 0.993 ± 0.023 |
| TTTTTGAACT | 1.01 ± 0.037 |
| TTTGACCGGA | 1.02 ± 0.072 |

| Sequence | switch fluorescence ratio |
| --- | --- |
| AGGTAGGGTG | 1.04 ± 0.055 |
| ATTATCCCGG | 0.99 ± 0.041 |
| AGTTCTGGTT | 0.965 ± 0.011 |
| GTTATAGAGG | 1.03 ± 0.042 |
| TGTTTTGGTT | 0.991 ± 0.025 |
| CTTTCCGTGC | 1.32 ± 0.035 |
| TGAACGAGGG | 1.01 ± 0.022 |
| GCTGGGACAC | 1.04 ± 0.012 |
| GTCGTATGAT | 0.9993 ± 0.0091 |
| ATAATGAGGT | 1.01 ± 0.042 |
| GGAGGCCTCG | 0.982 ± 0.018 |
| ATGTTGTGGG | 1 ± 0.013 |
| TGTTGTGATT | 0.994 ± 0.023 |
| GGAAACGGGG | 1.001 ± 0.0064 |
| AGGTCCGGTG | 1.031 ± 0.0096 |
| TCCAGTCATT | 0.998 ± 0.01 |
| ATAATCACCT | 1.23 ± 0.019 |
| TTCGGGGATG | 0.991 ± 0.048 |
| GTGGTTACAG | 1.02 ± 0.011 |
| GGTAAATGGG | 0.957 ± 0.011 |
| GCGTCCGACT | 0.986 ± 0.06 |
| TGGGGCGCAT | 1.09 ± 0.064 |
| TGGGGGGCAC | 0.986 ± 0.043 |
| GACCTAAGAC | 1.13 ± 0.053 |
| GGGCGACACG | 1 ± 0.06 |
